From publication PMC11538695 (Advanced Science, 2024)
Values belong to the binder of their own block, whether it stands above or below them.

Key:
Settings in all cases: both partners purified
[1] = biological target: T1, full-length human P97/VCP (Valosin-Containing Protein) (human, UniProt P55072 1-806); experiment: pull-down; MBP pull-down, SNARE complex held by MBP-syntaxin5; P97/VCP-P47 without or with VCPIP1 WT or Y623E/F638E added (VCPIP1 WT enhanced, the double mutant did not)
T1 construct: P97/VCP (valosin-containing protein), human, full length; Cloned into pRSF-32 M (N-terminal thioredoxin and 6xHis) or pET-28a; source: E. coli BL21 (DE3), purified (Ni-NTA, size exclusion chromatography)

[2] = biological target: T2, Syntaxin5 (STX5) contained SNARE complex (syntaxin-5, GOSR1, Ykt6, Bet1, without transmembrane domains) (human, UniProt Q13190 55-330; O95249 150-230; O15498 1-193; O15155 1-93); experiment: as above
T2 construct: syntaxin-5, human, residues 55-330; GosR1, human, residues 150-230; Ykt6, human, residues 1-193; Bet1, human, residues 1-93; also called intact SNARE complex; SNARE substrate; source: E. coli BL21 (DE3), pellets mixed and lysed together, purified (amylose resin, size exclusion chromatography); not shown: MBP, N-terminal, kept; copies: + + +
T2 sequence (looked up) 1: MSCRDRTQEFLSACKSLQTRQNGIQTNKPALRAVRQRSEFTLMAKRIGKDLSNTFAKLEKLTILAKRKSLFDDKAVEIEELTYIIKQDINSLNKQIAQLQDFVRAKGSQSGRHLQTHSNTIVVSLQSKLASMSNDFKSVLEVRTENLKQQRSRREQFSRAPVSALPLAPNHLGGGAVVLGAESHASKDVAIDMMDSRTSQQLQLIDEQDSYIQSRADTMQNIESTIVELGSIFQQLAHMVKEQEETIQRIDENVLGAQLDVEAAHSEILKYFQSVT
T2 sequence (looked up) 2: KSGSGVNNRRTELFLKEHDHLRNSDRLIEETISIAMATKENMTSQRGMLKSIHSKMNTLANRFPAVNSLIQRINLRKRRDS
T2 sequence (looked up) 3: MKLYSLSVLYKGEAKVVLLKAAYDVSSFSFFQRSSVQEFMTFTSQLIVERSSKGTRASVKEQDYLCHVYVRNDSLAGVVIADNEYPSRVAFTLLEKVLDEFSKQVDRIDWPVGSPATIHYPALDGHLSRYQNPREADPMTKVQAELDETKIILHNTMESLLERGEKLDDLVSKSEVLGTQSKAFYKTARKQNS
T2 sequence (looked up) 4: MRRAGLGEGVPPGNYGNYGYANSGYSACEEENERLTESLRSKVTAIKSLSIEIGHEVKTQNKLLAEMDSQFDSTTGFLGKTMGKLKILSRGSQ

[3] = biological target: T1, full-length human P97/VCP …; experiment: pull-down; 50 µg GST-tagged VCPIP1 protein held on glutathione Sepharose 4B, full-length P97/VCP at molar ratio 1:3; 20 mM Tris pH 7.5, 100 mM NaCl, 1 mM DTT; Coomassie staining
[4] = biological target: T3, N-terminal region of VCPIP1 (residues 40-464) (human, UniProt Q96JH7 40-464); experiment: SEC; gel filtration co-migration of purified fragments, fractions on SDS-PAGE with Coomassie staining
T3 construct: VCPIP1, human, N-terminal region with the OTU domain, residues 40-464; also called N-terminal OTU domain (residues 40-464); source: E. coli BL21 (DE3) (said of the recombinant proteins in general), purified
T3 sequence (looked up): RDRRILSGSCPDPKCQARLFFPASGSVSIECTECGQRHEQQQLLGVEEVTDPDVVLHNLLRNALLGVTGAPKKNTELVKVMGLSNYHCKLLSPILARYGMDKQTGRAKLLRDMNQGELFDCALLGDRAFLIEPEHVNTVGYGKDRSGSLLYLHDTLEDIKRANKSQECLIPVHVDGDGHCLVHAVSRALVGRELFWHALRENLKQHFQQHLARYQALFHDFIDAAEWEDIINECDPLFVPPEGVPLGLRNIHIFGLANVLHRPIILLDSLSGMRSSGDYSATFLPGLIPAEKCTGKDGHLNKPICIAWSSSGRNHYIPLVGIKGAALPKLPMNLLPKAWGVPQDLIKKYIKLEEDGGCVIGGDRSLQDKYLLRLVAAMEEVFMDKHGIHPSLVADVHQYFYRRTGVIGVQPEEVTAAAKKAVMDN

B1: full-length human P47 (natural protein, UniProt Q9UNZ2 1-370, looked up)
chain: MAAERQEALREFVAVTGAEEDRARFFLESAGWDLQIALASFYEDGGDEDIVTISQATPSSVSRGTAPSDNRVTSFRDLIHDQDEDEEEEEGQRFYAGGSERSGQQIVGPPRKKSPNELVDDLFKGAKEHGAVAVERVTKSPGETSKPRPFAGGGYRLGAAPEEESAYVAGEKRQHSSQDVHVVLKLWKSGFSLDNGELRSYQDPSNAQFLESIRRGEVPAELRRLAHGGQVNLDMEDHRDEDFVKPKGAFKAFTGEGQKLGSTAPQVLSTSSPAQQAENEAKASSSILIDESEPTTNIQIRLADGGRLVQKFNHSHRISDIRLFIVDARPAMAATSFILMTTFPNKELADESQTLKEANLLNAVIVQRLT
notes: P47 (adaptor of P97/VCP), human, full length; Cloned into pRSF-32 M or pET-28a; source: E. coli BL21 (DE3), purified (Ni-NTA, size exclusion chromatography)
binding result [1]: binds
binding result [2]: binds

B2: GST-VCPIP1 F3 fragment (IDR2-UBL-UFD2) (domain or fragment, human, UniProt Q96JH7 680-1000, looked up)
chain: QGQESESQLPTKIILTGQKTKTLHKEELNMSKTERTIQQNITEQASVMQKRKTEKLKQEQKGQPRTVSPSTIRDGPSSAPATPTKAPYSPTTSKEKKIRITTNDGRQSMVTLKSSTTFFELQESIAREFNIPPYLQCIRYGFPPKELMPPQAGMEKEPVPLQHGDRITIEILKSKAEGGQSAAAHSAHTVKQEDIAVTGKLSSKELQEQAEKEMYSLCLLATLMGEDVWSYAKGLPHMFQQGGVFYSIMKKTMGMADGKHCTFPHLPGKTFVYNASEDRLELCVDAAGHFPIGPDVEDLVKEAVSQVRAEATTRSRESSPS
notes: VCPIP1, human, residues 680-1000; pGEX-6P-1 vector; source: E. coli BL21 (DE3), purified (glutathione Sepharose 4B, size exclusion chromatography); not shown: GST, N-terminal, kept
binding result [3]: binds

Second part, the binder after the results:

binding result [4]: binds
B3: C-terminal tail of P97/VCP (residues 765-806) (domain or fragment, human, UniProt P55072 765-806, looked up)
chain: SRGFGSFRFPSGNQGGAGPSQGSGGGTGGSVYTEDNDDDLYG
notes: P97/VCP, human, C-terminal tail, residues 765-806; also called P97/VCP tail; source: E. coli BL21 (DE3) (said of the recombinant proteins in general), purified

binding result [3]: binds
B4: GST-VCPIP1 F1 fragment (IDR1-OTU) (domain or fragment, human, UniProt Q96JH7 1-464, looked up)
chain: MSQPPPPPPPLPPPPPPPEAPQTPSSLASAAASGGLLKRRDRRILSGSCPDPKCQARLFFPASGSVSIECTECGQRHEQQQLLGVEEVTDPDVVLHNLLRNALLGVTGAPKKNTELVKVMGLSNYHCKLLSPILARYGMDKQTGRAKLLRDMNQGELFDCALLGDRAFLIEPEHVNTVGYGKDRSGSLLYLHDTLEDIKRANKSQECLIPVHVDGDGHCLVHAVSRALVGRELFWHALRENLKQHFQQHLARYQALFHDFIDAAEWEDIINECDPLFVPPEGVPLGLRNIHIFGLANVLHRPIILLDSLSGMRSSGDYSATFLPGLIPAEKCTGKDGHLNKPICIAWSSSGRNHYIPLVGIKGAALPKLPMNLLPKAWGVPQDLIKKYIKLEEDGGCVIGGDRSLQDKYLLRLVAAMEEVFMDKHGIHPSLVADVHQYFYRRTGVIGVQPEEVTAAAKKAVMDN
notes: VCPIP1, human, residues 1-464 (methods); the results print 1-465; pGEX-6P-1 vector; source: E. coli BL21 (DE3), purified (glutathione Sepharose 4B, size exclusion chromatography); not shown: GST, N-terminal, kept
